Laboratory results taken from PMC5426288, “Crystal structure of thermostable alkylsulfatase SdsAP from Pseudomonas sp. S9” (Bioscience Reports, 2017).

Assays:
[1] = substrate: CCCCCCCCCCCCOS(=O)(=O)O; assay: isothermal titration calorimetry, enzyme rate assay; assay type: biochemical, Pseudomonas sp.; conditions: 25 °C, 25 mM Tris/HCl pH 8.0, 200 mM NaCl, 25 nM enzyme
[2] = target: the molecule itself; assay: crystal structure; SdsAP at 27.5 mg/ml, sitting drop vapor diffusion at 293 K, 0.1 M sodium acetate pH 4.5, 0.05 M magnesium acetate, 20% PEG 4000; two monomers in the asymmetric unit; 1.76 Å

B1: alkylsulfatase SdsAP from Pseudomonas sp. S9 (enzyme, UniProt F2WP51 42-674, looked up)
chain: AETAKPATDATKAANDALLKELPFDDKTSFDLAHKGFIAPLPAEPIKGEKGNMIWDPSKYGFIKEGEAAPDTTNPSLWRQSQLINISGLFEVTDGIYQVRNYDLSNMTIVEGKDGITIFDPLISQETAKAALDLYYKHRPKKPVVAVIYTHSHVDHYGGVRGVVDEADVKAGKVKIYAPLGFLEHAVAENVMAGTAMSRRASYMYGNLLPPDAKGQLGAGLGTTTSAGTVTLIPPTDIIKETGETHVIDGLTYEFMYAPGSEAPAEMLYYIKEKKALNAAEDSTHTLHNTYSLRGAKIRDPLAWSKYLNEALKLWGDDVQVMYAMHHWPVWGNKEVREQLSLQRDMYRYINDETLRLANKGYTMTEIAEQVKLPKKIATKFSNRGYYGSLNHNVKATYVLYLGWFIGNPATLWELPPADKAKRYVEMMGGADAVLKKAKEYYDKGDFRWVAEVVNHVVFAEPNNQAAKNMQADALEQLGYQAESGPWRNFYLTGAQELRNGVQQLPTPDTASPDTVKAMDLDLFFDFLAMRLKGPDVADKHITLNLDFTDLKQKYTLEMVNGVLNHTEGMQAKNADATVTLTRETLNNVMLKQTTLKDAESSGDIKIEGDKGKLEELMSYMDNFDFWFNIVTP
notes: SdsAP, type III alkylsulfatase of Pseudomonas sp; S9 (F2WP51); N-terminal signal peptide of 41 amino acids truncated; domains in the structure: 42-401 metallo-beta-lactamase like, 402-543 dimerization, 544-674 SCP-2-like; that this removes the His tag is inferred; source: E. coli BL21 (DE3), purified (IMAC, thrombin digestion, Mono Q, Superdex 200)
Km [1]: 74.2 ± 10 µM
kcat [1]: 4.88 ± 0.17 s⁻¹
stoichiometry N [2]: 2
